# Results reported in the DeepSol protein solubility set.
# Assay: soluble on expression in E. coli; label from the status in PepcDB or PDB records
row,Sequence,soluble on expression in E. coli
1,MGSDKIHHHHHHMTGAQPVILGDMPSLSKLYVNAAATAARRRVLGTGTGISLPPCGHEVRGVVADVGNLTAFQHLVGETASDTLPAGFIHALAFPVSMSVMNRDDFPLPLLGMVHLKNKVEQHGTILFTEALDITSWAESLRGHRAGTQVDIVAEVRRSGDAKVLWKGTSTYLAKGVFLPGIDKPSVPAPPATFSAPDPTALWELGVDTGRAYAAVSGDFNPIHLSVLSAKALGLRRSIAHGMYLASRALADVGAVKGESFSWEVSFETPVFLPARVALDISSVDSPSGAWQHSDYAAWNPRSGRRHFSGSVTALQGQD,not soluble
2,MGSDKIHHHHHHMYMYVNDKLVKEEEAIISPFDHGYMYGLGLFETFRLYEGHPFLLDDHFVRLEEGLRALAIDWTYNRSHVLHQLATLCNKNGVRNAYIRWNVSAGPGPIGLYTDTYKEPTVIIYMKSLPQGLSTRKTGTLLELRRNTPEGDRRLKSHHFLNNVLGKREVAKDPQTEGIFLTEDGVLAEGLTSNVFWVKNGVVYTPSVDTGILNGITRQFVLTLCDKEGIPWREGRYPKEALLKADGAFITNSIQEIVTLTSVGQAEFNQDEAVIMSLRKSYQKYCTKLWSKNEIKEGKQDVNNTCK,not soluble
3,MGSDKIHHHHHHMDLRQIRTFVYIAELRSYTRAAAFLHVSQPALSRQMRLLEEELRLKLFLRHGHGVELTNEGVAFFARCRDVLSEFEQLRHDFRSTGANKAVMGLVSVGLPAPATRFATPKLLHAARKSYPGLSVRFAEGFSALLHEWLLSGSLDLAVLFGSNTPKLLTSLPVLVEDLVAISAATKTSRKKNFVNAQDLQNTPLILPHRPHILRELIDSLHLKKVEILEVDSTSLMIELARVGDGTTILPAGSAEQSIRAGHVVALPIINPTLSWQVSICYSSVRPLSVGARVVLDLMRREIAQKVTSGEWLSGRLIRPGTEMTEGLDAAP,not soluble
4,MGSDKIHHHHHHMEVERLSLKEFCDMVAERKPTPGGGAVGSVVGAMACALAEMVANFTRKKKGYEDVEPEMERIVEAMEEARLKLFDLAKKDMEAFEKVMKAYKSSEGELQNALKEAASVPMDVIRVMKDLAHELEKLAEFGNKNLASDTLNAADLCHAVFQVEKVNVLINLKEISDETFRKNMLEELEEQEAQIEGCYQRVKKMLEGIVWSSK,soluble
5,MSLAPCGLVPSARQLEWYNREMIAFFHFGINTFEEYVNEGDGKASTAIFNPTALDCRQWMQTLKAAGIPAAILTAKHADGFCLWPSKYTDYSVKNAAWKNGKGDVVREFVDACEEYGLKAGIYLGPHDRHEHLSPLYTTERYKEYYAHQLGELMSDYGKIWETWWDGAGADELTTPVYRHWYKIVREKQPDCVIFGTKNSYPFADVRWMGNEAGEAGDPCWATTDSVAIRDEAQYYKGLNEGMLDGDAYIPAETDVSIRPSWFYHAEEDSRVKSVRELWDIYCTSVGRNSVLLLNFPPDRRGLIHSTDSLHAALLKQGIDETFSTNLLRGAKVKATNVRGAKYSPEKMLDNEKNTYFAGKDGEVKADIIFTLPKTIEFDCLMIEEVIELGHRTTKWSVEYTVDGKNWITIPEATDKQAIGHKWIVRLAPVKAKQVRLRIQDGKACPAIHTFGVYKQSPVFKEGHHHHHH,soluble
6,MDDRGGSFVAVRRISQGLERGSVYHSSSAEVVAGSAAWLGRGLSCVCVQGRDGDPRPSFDLTPAQEECLQRLQSRIDVAYDSSIPQHQEALKDLWKLAFPEEELHGIVSDQWKEMGWQGKDPSTDFRGGGFISLENLLYFARKFPKSFHGLLRKQVGDRSVWEYPFAVAGINITFMLIQMLDLEAVNESAFDLLYCIAFKLMDQQWLSMRASYMEFNTVMKSTRRQLEREIMIEDITSLEDLPSYSLLSQ,soluble
7,GPGSMRLALVGKRTHSLRDNGTPRMHAGDVFICISGSGCIGSIMCTYAQAKKASTGIVMIAGGVGDVPPKDSACATTTLLRSRDGLPWHLHGGGALGPVDGQPVRVRLVFAALFGRDALGGDAAGA,soluble
8,MSLDQPLTFYGLKSMSGAFASYGKYADMGSRLAIAEHPQLLGHPLKYKVIDTEGNAGKAVRKVQEAIGQDGARFFQGCTLSSSALAVSKEIHKAGGVFMTPVGADEITGKDCNASTFRWSVPTYGAIRETLVPMSRQLPQAKRWYTITPQYVFGDALLDNARKVFAELGVEHIGNSYHSLQEQEFSGYLTNAIAAKPDVLVLLNFGSQASNALRQAVNFGIKDRMKVLMVWSAGLDQFQELGSDVLEGVYLGAQYWHQVDTPLNKLLVAATRKAYGINPNYPLAADYIGTKVMLEAIVKAGSLDGAAVSAALQGMRFQGPTGEELIRPGDHQVLKDYYLLRGKPQGQMRDEDDLAEVISSGRSFVEVDHTGCALAEGHHHHHH,soluble
9,MKGIARLVTSLSRIGGRKVVSGTSTVTSSSSSSLLLSRRSLFISATNLLNSRTKDSALPSLNSSLLAQKWNFLGGQRRTMFIQTQSTPNPSSLMFYPGKPVMEVGSADFPNVRSALGSPLAKSIYSIDGVVRVFFGSDFVTVTKSDDVSWDILKPEIFAAVMDFYSSGQPLFLDSQAAAAKDTAISEDDSETVAMIKELLETRIRPAVQDDGGDIEYCGFDPESGIVKLRMQGACSGCPSSSVTLKSGIENMLMHYVSEVKGVEQEFDGEDEEGTLSGEMRVE,not soluble
10,MASPRANDAPIVLLHGFTGWGREEMLGFKYWGGVRGDIEQWLNDNGYRTYTLAVGPLSSNWDRACEAYAQLVGGTVDYGAAHAAKHGHARFGRTYPGLLPELKRGGRVHIIAHSQGGQTARMLVSLLENGSQEEREYAKAHNVSLSPLFEGGHHFVLSVTTIATPHDGTTLVNMVDFTDRFFDLQKAVLKAAAVASNVPYTSQVYDFKLDQWGLRRQPGESFDHYFERLKRSPVWTSTDTARYDLSIPGAEKLNQWVQASPNTYYLSFSTERTHRGALTGNYYPELGMNAFSAVVCAPFLGSYRNEALGIDDRWLENDGIVNTVSMNGPKRGSSDRIVPYDGTLKKGVWNDMGTYNVDHLEVIGVDPNPSFDIRAFYLRLAEQLASLRP,soluble
11,MAANQNVTKKKKAVIGGIFKAELNNFLMKELAEDGYSGVEVRSTPARAEVIIMATRTQNVLGERGRRIKELTSVVQKRFGFEEGSVELYAEKVSNRGLCAVAQCESLRYKLVGGLAVRRACYGVLRFIMESGAQGVEVIVSGKLRGQRAKAMKFVDGLMIHSGHPVNDYIQQAVRHVQLRQGVIGIKVKIMLPYDPRGQNGPRNALPDHVQIVEPQEEVLPKEPHSQHKEEKKDVQVPAAQPVAPVQ,not soluble
12,MKHLMKMWNPWWIERKVPASKKRISRPETLETILKLLDIREVICITGVRRCGKSTIMYQAIDHLIGKGVEPENILYFNLDEPFEDKSIGLLDRIFGEYIELHVPKGRKYIFLDEIQNVKDWEQWVKKFYDLHGEDIKFVLTGSNSSMLSDQLSILLTGRMITQHVFPLSFKEYLDFESFELKDPDIQRNEILHYFNKYLFKGGFPEVVLENDMDINHLRLTEYFNSILLRDIVVGRNIRESAKLIELANYSLSNVSTLLSYSKISNATGLSVNSLKEYLLFLEQAYLIYQLNFFSYSVKDSISIKMPKKVYCIDNGLRNSAAFTFSADEGRLAENLAFVELKRRKVEFFYWKEKREVDFVIKGIDGALTGINCTCTDHIRQGEINALLELKEQFGEKVSRLILLTKNLEKKENDISYIPLWKWVLGTRLSK,not soluble
13,MAHHHHHHMLAAIQGFGTRVAARTAGQALRRGLGVVPLRRCCPFRCASSASLPSDVEVHQGSDDYRHSDDAFTLSTEVLGTAEEKATLDEDEFDELEAASQELHDLCYALIAHLRCADPEANKALFERRVQRAFREPKPEQYRRLLHGHGDRSLRRRNNYRTRKDFQEAHRLYLQWCDKLLLLLTQPVLDRLVKSAGKGHRDLRTDGVHRYRRPLERATWRSFPHRWFKHAPFEVQQLRADIPESAVLNTRFYRDHATLRYLFTLMEPQHAFREKIERRVMDLTQRYDPLRKSIE,not soluble
14,MTEKEKMLAEKWYDANFDQYLINERARAKDICFELNHTRPSATNKRKELIDQLFQTTTDNVSISIPFDTDYGWNVKLGKNVYVNTNCYFMDGGQITIGDNVFIGPNCGFYTATHPLNFHHRNEGFEKAGPIHIGSNTWFGGHVAVLPGVTIGEGSVIGAGSVVTKDIPPHSLAVGNPCKVVRKIDNDLPSETLNDETIK,soluble
15,MAHHHHHHMADDEPEYREAANPIEAFIDCARYDEPGDAEALRTLLSNSPSFLNSQDEQGRTALHVAAANGRLKVLETLLGYNPTPDVPNNEGNTALHFAALNNQTAAARLLLRHGWRASARNAFNKTPIQLIYGKQFEDMELLLLGHDDELEQFSGQASQAARGPAVVNEATVQQQPAVEAERATNAEQPRVNPVQKEQESDPTTLLGSVGVDEIE,soluble
16,MSLRILDIREQAIPVSRYDDPAIASGGLTTSIVAIVTDVVRDGRPVTGYGYASAGRFAQGGLIRERFAPRLLAAAEALADDAGTNLDPLRAWRAMMAGEKPGGHGERCVAVGTLDMAIWDAAAKIARVPLHCLIADRLGRAAPARTARVRVYAGGGYRYPRDDLARLSDEMRRIVDLGYTHAKIKIGATDLDVDRRRIEAAAARLADSAHLAVDAMNAYDATNAGDAAAMLAPFGLWWFEDVCDPLDLPLHAQLAAQYAPPIAAGEALFSLAEAKLLDRYGGLRSDRDVLVFDPVHCYGLSGYLQIVDHFVSRGWRRDAFWPHGGHLFSLHVVAALGLGGAEVNPFAFHPFSGLADGERVDAGYAALPSAPGIGFECHARVHAAFRALSVREGHHHHHH,soluble
17,MKTLPPILSNIIEKVTNTEPANVEDKLPMNILVLGSDEKQGGRSDTIMLVHIQKDFQPIVISIPRDTRVKVEGIKGYSKINAAYAYGKSKLAVKTVEDILGIKIDKYVVVNYEAVEKIVDLVGGVDVEVPFHLYYVDTTPGKELYINIPAGLQHLDGKKAVEFLRWRHNSNGKEYGRGGDLGRIEMQRKLLYALIEKMLKPQNIVRLPLIVQTVSKYTDHNFTKNEIMWFIQNVGKFNTQNIMMTILPGYPKYIDRVSYYILNEEKCRALIDDLNEPEVLKDSMKIKILSKSFDDKATQLKNDLESKGYSNVNLGRVSKLESSEVELKRVNRKYLELLKNDIDLSTYQVVYSPDYSDKFDVYIKVKLEHHHHHH,soluble
18,MGHHHHHHSHMRPDCDGWLLLRKAPGGFMGPRWRRRWFVLKGHTLYWYRQPQDEKAEGLINVSNYSLESGHDQKKKYVFQLTHDVYKPFIFAADTLTDLSMWVRHLITCIS,not soluble
19,MTESEVRKLLRQMKELDSQTAFRDFYNMTYDRLFRIAYYYVKQEEWSQEIVLDIFLKLWKQRDTLLDVKNIEDYCFILVKNASLNYLEKESKYTTIHSDSLPEPQEQSYSPEESLISEELFAIYVKALDRLPERCREIFIRIREEKQSYAQVAEELDISIKTVDAQLQKAVSRLKEMISSSG,not soluble
20,MPSAHSVKLRPLEREDLRYVHQLDNNASVMRYWFEEPYEAFVELSDLYDKHIHDQSERRFVVECDGEKAGLVELVEINHVHRRAEFQIIISPEYQGKGLATRAAKLAMDYGFTVLNLYKLYLIVDKENEKAIHIYRKLGFSVEGELMHEFFINGQYRNAIRMCIFQHQYLAEHKTPGQTLLKPTAQLEHHHHHH,not soluble
21,SHEELNDQLRVRREKLKKIEELGVDPFGKRFERTHKAEELFELYGDLSKEELEEQQIEVAVAGRIMTKRGMGKAGFAHIQDVTGQIQIYVRQDDVGEQQYELFKISDLGDIVGVRGTMFKTKVGELSIKVSSYEFLTKALRPLPEKYHGLKDIEQRYRQRYLDLIMNPESKKTFITRSLIIQSMRRYLDSHGYLEVETPMMHAVAGGAAARPFITHHNALDMTLYMRIAIELHLKRLIVGGLEKVYEIGRVFRNEGISTRHNPEFTMLELYEAYADFRDIMKLTENLIAHIATEVLGTTKIQYGEHLVDLTPEWRRLHMVDAIKEYVGVDFWRQMSDEEARELAKEHGVEVAPHMTFGHIVNEFFEQKVEDKLIQPTFIYGHPVEISPLAKKNPDDPRFTDRFELFIVGREHANAFTELNDPIDQRQRFEEQLKEREQGNDEAHEMDEDFLEALEYGMPPTGGLGIGVDRLVMLLTNSPSIRDVLLFPQMRHK,soluble
